Measured values as given in paper PMC6635019.
Several values for one entry are separate records, joined by “and”; a condition that tells them apart may be missing. Equal values may be shown once.

Experiments:
[1] = target: LL-37 (human); test: native MS
[2] = target: gramicidin A; test: native MS

Row | stoichiometry N [2] | Substance | stoichiometry N [1]
1 | – | LL-37 (peptide) | 2 and 3 and 4
2 | 2 | gramicidin A (peptide) | –
